Measurements reported in patent publication US20030170823A1 (ZymoGenetics, published 2003).

Target: T1, CRF2-4/zcytor11 heterodimeric receptor on BaF3 cells (human, UniProt Q08334 20-325, limits assumed)
T1 sequence 1: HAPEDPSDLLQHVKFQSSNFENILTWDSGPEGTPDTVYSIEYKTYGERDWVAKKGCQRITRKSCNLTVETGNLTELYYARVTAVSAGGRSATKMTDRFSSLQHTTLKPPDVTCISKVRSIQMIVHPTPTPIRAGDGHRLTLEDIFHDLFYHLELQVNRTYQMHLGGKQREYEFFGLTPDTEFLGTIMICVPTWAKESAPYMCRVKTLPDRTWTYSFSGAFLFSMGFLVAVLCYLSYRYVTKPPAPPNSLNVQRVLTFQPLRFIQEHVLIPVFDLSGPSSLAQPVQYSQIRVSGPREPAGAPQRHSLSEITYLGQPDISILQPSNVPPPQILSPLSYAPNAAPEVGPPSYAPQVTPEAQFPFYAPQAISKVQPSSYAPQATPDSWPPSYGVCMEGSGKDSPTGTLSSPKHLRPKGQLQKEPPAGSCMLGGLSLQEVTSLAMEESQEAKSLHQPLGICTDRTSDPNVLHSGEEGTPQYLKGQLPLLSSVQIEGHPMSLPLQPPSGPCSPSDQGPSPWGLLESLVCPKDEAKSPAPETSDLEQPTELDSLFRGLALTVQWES
T1 sequence 2: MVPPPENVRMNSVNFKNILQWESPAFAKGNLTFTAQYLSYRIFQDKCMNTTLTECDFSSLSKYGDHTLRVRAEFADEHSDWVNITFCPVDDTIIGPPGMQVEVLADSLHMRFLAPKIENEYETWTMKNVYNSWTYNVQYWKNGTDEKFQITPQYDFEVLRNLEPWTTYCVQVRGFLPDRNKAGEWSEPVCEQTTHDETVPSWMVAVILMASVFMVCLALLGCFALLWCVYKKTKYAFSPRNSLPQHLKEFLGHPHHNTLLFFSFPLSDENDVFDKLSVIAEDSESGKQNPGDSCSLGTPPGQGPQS
Assay: cell-based or functional assay

proliferation of BaF3/CRF2-4/zcytor11 cells (Alamar Blue), fold induction at 0.06 ng/ml ZCYTO18-CEE: ~2 fold induction
proliferation of BaF3/CRF2-4/zcytor11 cells (Alamar Blue), fold over background at 50 ng/ml ZCYTO18-CEE: ~15 fold over background
B1: ZCYTO18-CEE polypeptide purified from BHK 570 cells (ligand)
chain: APISSHCRLDKSNFQQPYITNRTFMLAKEASLADNNTDVRLIGEKLFHGVSMSERCYLMKQVLNFTLEEVLFPQSDRFQPYMQEVVPFLARLSNRLSTCHIEGDDLHIQRNVQKLKDTVKKLGESGEIKAIGELDLLFMSLRNACIEYMPME
